Laboratory results: PMC12815460, “A high-resolution analysis of arrestin2 interactions responsible for CCR5 endocytosis” (eLife, 2026)
One block for each molecule: values may come before it.

Legend:
[1] = molecular target: CCR5pp3 phosphopeptide C-terminal phosphopeptide (Homo sapiens) (UniProt P51681); details: cited from earlier work
[2] = molecular target: arrestin2^1-418 (full-length human arrestin2) (human) (UniProt P49407)
AP2β2 (Homo sapiens) = AP2β2 (Homo sapiens) (UniProt P63010); test: EPR; details: cited from earlier work
[3] = molecular target: T1, clathrin-N (clathrin heavy chain 1 N-terminal domain, residues 1–364) (UniProt Q00610 1-364); test: NMR titration; 50 μM 15N,2H-labelled clathrin-N observed (1H-15N HSQC-TROSY, 900 MHz), unlabelled arrestin2 construct added up to equimolar, no phosphopeptide; 20 mM HEPES, 150 mM NaCl, pH 7.4, 303 K; details: both partners purified
T1 construct: the construct used here is 1–364; Tag removed with 3C protease; pETM33 may add GST besides the His tag (surmise); Used 15N,2H-labelled or unlabelled; also called clathrin heavy chain N-terminal domain; CLTC Clathrin propeller; source: E. coli BL21 (DE3), purified (Ni-NTA, reverse IMAC, gel filtration)
T1 sequence (looked up): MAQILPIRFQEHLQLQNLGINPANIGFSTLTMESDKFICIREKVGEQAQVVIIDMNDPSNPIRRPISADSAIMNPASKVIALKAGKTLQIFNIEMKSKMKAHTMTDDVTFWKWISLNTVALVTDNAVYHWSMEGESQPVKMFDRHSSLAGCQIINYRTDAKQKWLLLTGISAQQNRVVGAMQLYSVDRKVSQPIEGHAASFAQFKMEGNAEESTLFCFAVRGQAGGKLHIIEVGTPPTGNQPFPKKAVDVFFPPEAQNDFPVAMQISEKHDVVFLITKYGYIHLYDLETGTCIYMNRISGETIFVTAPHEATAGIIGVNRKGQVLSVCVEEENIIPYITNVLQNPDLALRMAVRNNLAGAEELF

[4] = molecular target: T1, clathrin-N (clathrin heavy chain 1 …); test: NMR titration; 50 μM Ile-δ1-13CH3,2H-labelled arrestin2^1-393 observed (1H-13C HMQC), unlabelled clathrin-N up to 600 μM; I377 13C shifts fitted with a 1:1 isotherm; apparent; 20 mM HEPES, 150 mM NaCl, pH 7.4, 303 K; details: both partners purified
AP2β2 = molecular target: T2, AP2β2 (Homo sapiens, UniProt P63010); test: SEC
T2 chain: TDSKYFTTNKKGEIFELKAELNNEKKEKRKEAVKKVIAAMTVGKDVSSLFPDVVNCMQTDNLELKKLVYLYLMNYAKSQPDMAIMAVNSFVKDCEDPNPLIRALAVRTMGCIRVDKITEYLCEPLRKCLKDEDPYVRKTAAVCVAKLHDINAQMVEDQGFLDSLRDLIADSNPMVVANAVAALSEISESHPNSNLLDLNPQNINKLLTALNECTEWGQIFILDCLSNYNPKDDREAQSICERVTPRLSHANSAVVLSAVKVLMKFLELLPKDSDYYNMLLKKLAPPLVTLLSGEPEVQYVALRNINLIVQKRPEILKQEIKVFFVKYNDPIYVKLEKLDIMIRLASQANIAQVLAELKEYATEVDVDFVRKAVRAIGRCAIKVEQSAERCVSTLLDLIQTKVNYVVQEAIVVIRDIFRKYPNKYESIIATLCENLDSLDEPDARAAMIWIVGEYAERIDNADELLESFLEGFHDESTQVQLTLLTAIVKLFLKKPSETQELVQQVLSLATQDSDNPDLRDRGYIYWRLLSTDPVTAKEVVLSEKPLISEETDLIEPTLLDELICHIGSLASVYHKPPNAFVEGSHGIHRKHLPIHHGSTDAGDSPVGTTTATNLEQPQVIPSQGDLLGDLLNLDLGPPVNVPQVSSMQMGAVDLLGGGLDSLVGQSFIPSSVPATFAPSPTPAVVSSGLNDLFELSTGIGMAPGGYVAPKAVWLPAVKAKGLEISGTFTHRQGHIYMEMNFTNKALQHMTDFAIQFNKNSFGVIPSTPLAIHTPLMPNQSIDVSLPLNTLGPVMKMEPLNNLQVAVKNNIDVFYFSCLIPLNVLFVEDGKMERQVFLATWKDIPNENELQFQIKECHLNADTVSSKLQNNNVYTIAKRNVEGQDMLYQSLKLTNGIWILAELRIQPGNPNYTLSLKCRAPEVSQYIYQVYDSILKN

Chain of CCR5pp3 phosphopeptide C-terminal phosphopeptide (Homo sapiens) (P51681 332-352): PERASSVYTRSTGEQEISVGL

Molecule: arrestin2 (from UniProt P49407)
Kd [1]: 200 µM

protection of CCR5pp6-activated arrestin2^1-418 from trypsin: proteolysis midpoint at 1-, 2- and 5-molar equivalents of AP2β2^701-937 (10 to 30 min) [2]: 30 min
Molecule: AP2β2^701-937 (C-terminal domain of the β2 subunit of the AP2 complex, residues 701–937) (from UniProt P63010 701-937) (domain or fragment)

Molecule: arrestin β20 peptide 383-402 (from UniProt P49407)
Kd (AP2β2 (Homo sapiens)): 9 µM

stoichiometry N [3]: 1
Kd [4]: 104 ± 9 µM
B1: arrestin2^1-393 (truncated human arrestin2, residues 1–393) (domain or fragment)
chain: MGDKGTRVFKKASPNGKLTVYLGKRDFVDHIDLVDPVDGVVLVDPEYLKERRVYVTLTCAFRYGREDLDVLGLTFRKDLFVANVQSFPPAPEDKKPLTRLQERLIKKLGEHAYPFTFEIPPNLPCSVTLQPGPEDTGKACGVDYEVKAFLAENLEEKIHKRNSVRLVIRKVQYAPERPGPQPTAETTRQFLMSDKPLHLEASLDKEIYYHGEPISVNVHVTNNTNKTVKKIKISVRQYADIVLFNTAQYKVPVAMEEADDTVAPSSTFSKVYTLTPFLANNREKRGLALDGKLKHEDTNLASSTLLREGANREILGIIVSYKVKVKLVVSRGGLLGDLASSDVAVELPFTLMHPKPKEEPPHREVPENETPVDTNLIELDTNDDDIVFEDFAR
modifications: Cys replacements inferred from the printed arrestin2-ΔCBL sequence (L150, V242, V251, S269), assumed to share the parent construct of Isaikina et al. 2023; not stated in this text for 1-393. Isotope …

Kd (AP2β2): 44 µM
B2: arrestin2 (protein)
chain: MGDKGTRVFKKASPNGKLTVYLGKRDFVDHIDLVDPVDGVVLVDPEYLKERRVYVTLTCAFRYGREDLDVLGLTFRKDLFVANVQSFPPAPEDKKPLTRLQERLIKKLGEHAYPFTFEIPPNLPCSVTLQPGPEDTGKACGVDYEVKAFCAENLEEKIHKRNSVRLVIRKVQYAPERPGPQPTAETTRQFLMSDKPLHLEASLDKEIYYHGEPISVNVHVTNNTNKTVKKIKISVRQYADICLFNTAQYKCPVAMEEADDTVAPSSTFCKVYTLTPFLANNREKRGLALDGKLKHEDTNLASSTLLREGANREILGIIVSYKVKVKLVVSRGGLLGDLASSDVAVELPFTLMHPKPKEEPPHREVPENETPVDTNLIELDTNDDDIVFEDFARQRLKGMKDDKEEEEDGTGSPQLNNR
modifications: CCR5pp4 phosphopeptide

Kd (AP2β2): 40 µM
B3: arrestin2 (protein)
chain: B2 chain
modifications: CCR5pp3 phosphopeptide

Kd (AP2β2): 9 µM
B4: arrestin2 (protein)
chain: B2 chain
modifications: CCR5pp6 phosphopeptide
